The values that follow are results of earlier work, collected in patent US6660905B1, “Mice comprising engrafted functional human hepatocytes” (The Board of Trustees of the Leland Stanford Junior …, priority 1999, dated 2003).

In the case of HGF: human hepatocyte growth factor, the half-life result is recorded as “on the order of minutes”.
